From patent US20180155451A1 (published 2018) come the findings set out here.

Changes are numbered by the printed parent chain.

Experiment [1] has as its target T1, FcgRI extracellular domain, C-terminal His tag (human, UniProt P12314 16-292).
T1 construct: extracellular domain; also called FcγRIa; FcgRIa; not shown: His tag attached to the C terminus
In words: SPR (Biacore), antibody captured on chip, FcgR extracellular domain as analyte, 25 C, 1:1 Langmuir fit; experiment #3. How it is done: (§1) Antibodies of interest were analyzed for the interaction to FcgR according to the method described in Reference Example 8.
(§2) Analysis of interaction between obj ective antibody and the FcγR was carried out using Biacore T100 (GE Healthcare), Biacore T200, Biacore A100, and Biacore 4000. HBS-EP+ (GE Healthcare) was used as the running buffer, and the measurement temperature was set to 25° C. Chips produced by immobilizing the antigen peptide by the amine coupling method to a Series S sensor Chip CM5 (GE Healthcare), chips produced by allowing preliminarily biotinylated antigen peptides to interact with and immobilize onto a Series S Sensor Chip SA (certified) (GE Healthcare), chips produced by immobilizing Protein L (ACTIGEN, BioVision) to Series S Sencor Chip CM5 (GE Healthcare), or chips produced by immobilizing Protein A/G (Thermo Scientific) to Series S Sencor Chip CM5 (GE Healthcare) were used. Antibodies of interest were captured onto these chips, and allowed to interact to each FcγR diluted with running buffer. To regenerate and repeatedly use the chip, the antibodies captured onto the chip were washed off by reacting 10 mM glycine-HCl, pH 1.5.
A general note: Surface plasmon resonance follows binding to a sensor surface in real time, without labels.

For experiment [2], the target named is T2, FcgRIIa R type extracellular domain, C-terminal His tag (human, UniProt P12318 34-217).
T2 construct: extracellular domain; also called FcγRIIa R; 2aR; not shown: His tag attached to the C terminus
T2 sequence (looked up): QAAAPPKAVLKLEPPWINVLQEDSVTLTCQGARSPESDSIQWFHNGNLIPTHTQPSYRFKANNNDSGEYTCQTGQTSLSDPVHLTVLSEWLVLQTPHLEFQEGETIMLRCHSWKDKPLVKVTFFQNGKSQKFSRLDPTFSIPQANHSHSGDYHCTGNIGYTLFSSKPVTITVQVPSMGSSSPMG
Described as above. How it is done:
as §1, §2

Experiment [3] concerns the target T3, FcgRIIIa F type extracellular domain, C-terminal His tag (human, UniProt P08637 17-208).
T3 construct: extracellular domain; also called FcγRIIIa F; 3aF; not shown: His tag attached to the C terminus
Described as above. How it is done: as §1, §2

For experiment [4], the target named is T4, FcgRIIIa V type extracellular domain, C-terminal His tag (human, UniProt P08637 17-208).
T4 construct: extracellular domain; also called FcγRIIIa V; 3aV; not shown: His tag attached to the C terminus
T4 sequence (P08637 17-208 F176V limits assumed): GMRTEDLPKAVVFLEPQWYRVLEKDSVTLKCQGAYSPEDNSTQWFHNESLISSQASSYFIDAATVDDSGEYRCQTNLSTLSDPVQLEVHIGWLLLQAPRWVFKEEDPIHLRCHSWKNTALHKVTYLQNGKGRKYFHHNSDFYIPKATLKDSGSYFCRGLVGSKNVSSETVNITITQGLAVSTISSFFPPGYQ
The experiment is described as above. How it is done: as §1, §2

The target in experiment [5] is T5, FcgRIIa H type extracellular domain, C-terminal His tag (human, UniProt P12318 34-217).
T5 construct: extracellular domain; also called FcγRIIa H; 2aH; not shown: His tag attached to the C terminus
T5 sequence (looked up): T2 sequence (looked up) with R134H
The description is as above. On the procedure:
as §1, §2

The target of experiment [6] is T6, FcgRIIb extracellular domain, C-terminal His tag (human, UniProt P31994 43-217).
T6 construct: extracellular domain; also called FcγRIIb; 2b; not shown: His tag attached to the C terminus
T6 sequence (looked up): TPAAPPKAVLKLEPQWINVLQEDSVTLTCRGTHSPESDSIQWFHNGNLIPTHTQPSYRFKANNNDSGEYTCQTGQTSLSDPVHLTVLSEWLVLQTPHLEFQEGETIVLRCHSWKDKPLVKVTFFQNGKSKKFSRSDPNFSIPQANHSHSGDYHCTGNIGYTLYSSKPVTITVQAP
The description is as above. How it is done:
as §1, §2

For experiment [7], the target named is T7, FcγRIIIa extracellular domain with C-terminal His tag (human, UniProt P08637 17-208).
T7 construct: extracellular domain; also called FcgRIIIa; CD16A
T7 sequence (P08637 17-208): as the sequence (P08637 17-208 F176V limits assumed) above, with V160F counted along it
In words: SPR (Biacore), antibody captured, FcγRIIIa as analyte, 1:1 Langmuir kinetic fit. How it is done:
The prepared antibodies were compared for the FcγRIIIa-binding activity using, as an indicator, KD for FcγRIIIa that was determined according to the method described in Reference Example 2.
(§3) Analysis of interaction between objective antibody and the FcγR was carried out using Biacore T100 (GE Healthcare). HBS-EP+ (GE Healthcare) was used as the running buffer, and the measurement temperature was set to 25° C. Chips produced by immobilizing the antigen peptide by the amine coupling method to a Series S Sencor Chip CM5 (GE Healthcare), or alternatively, chips produced by allowing preliminarily biotinylated antigen peptides to interact with and immobilize onto a Series S Sensor Chip SA (certified) (GE Healthcare) were used. Antibodies of interest were captured onto an antigen peptide-immobilized chip, and allowed to interact to each FcγR diluted with running buffer. To regenerate and repeatedly use the chip, the antibodies captured on the chip were washed off by reacting 10 mM glycine-HCl, pH 1.5.
The FcγR-binding activity of each antibody was assessed primarily using as an indicator the FcγR-binding activity and dissociation constant for FcγR.

Experiment [8] addresses T7, FcγRIIIa extracellular domain with …. In words: SPR (Biacore), ratio of KD values for FcγRIIIa.
Excerpt: GpH7-A57 (SEQ ID NO: 40) resulting from the introduction of all of S239D, A330L, and I332E into GpH7-A5; GpH7-B78 (SEQ ID NO: 41) resulting from the introduction of all of S239D, A330L, and I332E into GpH7-B3; GpH7-TA7 (SEQ ID NO: 31) resulting from the introduction of all of L234Y, G236W, and S298A into GpH7-A5; and GpH7-TA45 (SEQ ID NO: 32) resulting from the introduction of all of L234Y, G236W, and S298A into GpH7-B3. […] The prepared antibodies were compared for the FcγRIIIa-binding activity using, as an indicator, KD for FcγRIIIa that was determined according to the method described in Reference Example 2.
as §3

T3 sequence (P08637 17-208): as the sequence (P08637 17-208 F176V limits assumed) above, with V160F counted along it
T1 sequence (P12314 16-292): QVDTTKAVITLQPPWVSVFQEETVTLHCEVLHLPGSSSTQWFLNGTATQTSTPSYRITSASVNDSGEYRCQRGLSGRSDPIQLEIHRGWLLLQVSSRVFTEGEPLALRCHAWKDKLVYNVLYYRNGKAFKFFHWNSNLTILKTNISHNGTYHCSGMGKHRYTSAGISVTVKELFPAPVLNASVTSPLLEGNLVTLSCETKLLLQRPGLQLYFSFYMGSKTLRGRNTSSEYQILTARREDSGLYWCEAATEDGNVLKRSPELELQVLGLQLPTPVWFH

B1: H240-FA021/H240-FB059/L73-k0 (antibody, human IgG1, kappa)
heavy 1: QDQLVQSGAEVKKPGASVKVSCKASGFNIKDTYIQWVRQAPGQGLEWMGRIDPLRKQTKYREKFEGRVTITADTSTNTAYMELSSLRSEDTAVYYCVRSGREFDYWGQGTLVTVSSASTKGPSVFPLAPSSKSTSGGTAALGCLVKDYFPEPVTVSWNSGALTSGVHTFPAVLQSSGLYSLSSVVTVPSSSLGTKTYTCNVNHKPSNTKVDKKVEPKSCDKTHTCPPCPAPEYYWGPSVFLFPPKPKDTLMISRTPEVTCVVVDVSDEEPEVKFNWYVDGVEVHNAKTKPREEQYNATYRVVSVLTVLHQDWLNGKEYKCKVSNKALPAPIEKTISKAKGQPREPQVYTLPPSRKEKTKNQVSLTCLVKGFYPSDIAVEWESNGQPENNYKTTPPKLDSDGSFFLYSKLTVDKSRWQQGNVFSCSVMHEALHNRYTQKSLSLSP
heavy 2: QDQLVQSGAEVKKPGASVKVSCKASGFNIKDTYIQWVRQAPGQGLEWMGRIDPLRKQTKYREKFEGRVTITADTSTNTAYMELSSLRSEDTAVYYCVRSGREFDYWGQGTLVTVSSASTKGPSVFPLAPSSKSTSGETAALGCLVEDYFPEPVTVSWNSGALTSGVHTFPAVLQSSGLYSLSSVVTVPSSSLGTQTYICNVNHKPSNTKVDKKVEPKSCDKTHTCPPCPAPELLGGPSVFLFPPKPKDTLMISRTPEVTCVVVDVSHEEPEVQFNWYVDGVEVHNAETKPREEQYNSTYRVVSVLTVLHQDWLNGKEYKCKVSNDALPMPIEETISKAKGQPREPQVYTLPPSREEMTKNQVSLTCLVKGFYPSDIAVEWESNGQPENNYKTTPPVLDSDGSFFLYSKLTVDKSRWQQGNVFSCSVMHEALHNHYTQESLSLSP
light: DIQMTQSPSSLSASVGDRVTITCRASQDIHKYIAWYQQKPGQAPRLLIQYTSTLQPGVPSRFSGSGSGTDYTFTISSLQPEDIATYYCLQYEQLRTFGGGTKVEIKRTVAAPSVFIFPPSDEQLKSGTASVVCLLNNFYPREAKVQWKVDNALQSGNSQESVTEQDSKDSTYSLSSTLTLSKADYEKHKVYACEVTHQGLSSPVTKSFNRGEC
notes: Heterodimerized anti-epiregulin IgG1 antibody
Turning to B1, the Kd stood at 0.069 nM in experiment [1]; 280 nM in experiment [2]; 4.4 nM in experiment [3]; 1.7 nM in experiment [4]; 92 nM in experiment [5]; 1300 nM in experiment [6].

B2: H240-FA021/H240-FB082/L73-k0 (antibody, human IgG1, kappa)
heavy 1: B1 heavy 1
heavy 2: B1 heavy 2 with N383E
light: B1 light
notes: as for B1
Consider B2, for which the Kd in experiment [1] was found to be 0.06 nM; in experiment [2], 230 nM; in experiment [3] it was 4.2 nM; in experiment [4] it was 1.5 nM; in experiment [5], 77 nM; in experiment [6], 1600 nM.

B3: H240-FA021/H240-FB084/L73-k0 (antibody, human IgG1, kappa)
heavy 1: B1 heavy 1
heavy 2: B1 heavy 2 with G136E, E137S, S191N, L192F, I198T, N202D, K213T, N383E
light: B1 light
notes: Heterodimerized anti-epiregulin IgG1 antibody; also called H240-FA021/H240-BF084/L73-k0
As to B3, the Kd was 0.033 nM in experiment [1]; 230 nM in experiment [2]; 3.3 nM in experiment [3]; 1.3 nM in experiment [4]; 69 nM in experiment [5]; 1300 nM in experiment [6].

B4: H240-FA020/H240-FB084/L73-k0 (antibody, human IgG1, kappa)
heavy 1: B1 heavy 1 with K396V
heavy 2: B1 heavy 2 with G136E, E137S, S191N, L192F, I198T, N202D, K213T, N383E
light: B1 light
notes: as for B1
As for B4, the Kd in experiment [1] was 0.068 nM; in experiment [2], 220 nM; in experiment [3], 3.5 nM; in experiment [4], 1 nM; in experiment [5], 57 nM; in experiment [6] it was 1400 nM.

B5: H240-FA020/H240-FB082/L73-k0 (antibody, human IgG1, kappa)
heavy 1: B1 heavy 1 with K396V
heavy 2: B1 heavy 2 with N383E
light: B1 light
notes: as for B1
B5: the Kd in experiment [1] was found to be 0.079 nM; in experiment [2], 270 nM; in experiment [3], 3.4 nM; in experiment [4], 1.1 nM; in experiment [5], 69 nM; in experiment [6], 1200 nM.

B6: H240-FA020/H240-FB059/L73-k0 (antibody, human IgG1, kappa)
heavy 1: B1 heavy 1 with K396V
heavy 2: B1 heavy 2
light: B1 light
notes: as for B1
For B6, the Kd in experiment [1] amounted to 0.038 nM; in experiment [2], 250 nM; in experiment [3], 3.5 nM; in experiment [4], 1.3 nM; in experiment [5] it was 77 nM; in experiment [6], 1300 nM.

B7: H240-FA021/H240-FB083/L73-k0 (antibody, human IgG1, kappa)
heavy 1: B1 heavy 1
heavy 2: B1 heavy 2 with G136E, E137S, S191N, L192F, I198T, N202D, K213T
light: B1 light
notes: as for B1
With B7, the Kd in experiment [1] stood at 0.078 nM; in experiment [2], 240 nM; in experiment [3] it was 3.9 nM; in experiment [4], 1.4 nM; in experiment [5], 69 nM; in experiment [6], 1300 nM.

B8: H240-FA020/H240-FB083/L73-k0 (antibody, human IgG1, kappa)
heavy 1: B1 heavy 1 with K396V
heavy 2: B1 heavy 2 with G136E, E137S, S191N, L192F, I198T, N202D, K213T
light: B1 light
notes: as for B1
For B8, the Kd in experiment [1] turned out to be 0.12 nM; in experiment [2], 230 nM; in experiment [3], 3.4 nM; in experiment [4], 1.1 nM; in experiment [5], 65 nM; in experiment [6], 1000 nM.

B9: GpH7-G1d/GpL16-k0 (antibody, human IgG1, kappa)
heavy: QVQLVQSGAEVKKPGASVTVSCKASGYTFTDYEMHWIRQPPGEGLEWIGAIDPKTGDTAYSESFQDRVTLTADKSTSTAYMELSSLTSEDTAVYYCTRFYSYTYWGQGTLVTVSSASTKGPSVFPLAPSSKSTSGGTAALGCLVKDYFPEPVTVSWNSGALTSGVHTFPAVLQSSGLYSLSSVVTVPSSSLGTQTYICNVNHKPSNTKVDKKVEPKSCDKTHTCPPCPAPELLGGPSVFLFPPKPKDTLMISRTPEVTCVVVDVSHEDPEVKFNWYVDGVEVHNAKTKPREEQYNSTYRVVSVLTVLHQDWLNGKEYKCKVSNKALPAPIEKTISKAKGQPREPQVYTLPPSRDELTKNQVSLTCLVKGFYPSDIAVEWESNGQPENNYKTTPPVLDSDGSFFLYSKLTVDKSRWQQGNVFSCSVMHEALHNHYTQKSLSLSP
light: DIVMTQSPLSLPVTPGEPASISCQASESLVHSNRNTYLHWYLQKPGQSPQLLIYKVSNRFSGVPDRFSGSGSGTDFTLKISRVEAEDVGVYYCSQNTHVPPTFGQGTKVEIERTVAAPSVFIFPPSDEQLKSGTASVVCLLNNFYPREAKVQWKVDNALQSGNSQESVTEQDSKDSTYSLSSTLTLSKADYEKHKVYACEVTHQGLSSPVTKSFNRGEC
notes: Anti-glypican-3 native-type human IgG1 control; also called native IgG1
As for B9, the Kd in experiment [7] came to 1200 nM. The “KD ratio 1 (KD of GpH7-G1d/GpL16-k0 divided by KD of the antibody)” value in experiment [8] came out at 1 fold.

As a reminder, the Kd is the constant that tells how readily two partners part at equilibrium. A low value points to a tighter complex.
